The record followed here is PMC5378721, “The Proteasomal ATPases Use a Slow but Highly Processive Strategy to Unfold Proteins” (Frontiers in Molecular Biosciences, 2017).

The target in data set [1] is T1, PAN (Proteasome Activating Nucleotidase), with T20S (Methanocaldococcus jannaschii, UniProt Q58576).
T1 construct: homohexamer; with Proteasome subunit alpha (20S proteasome of Thermoplasma acidophilum, T20S); Proteasome subunit beta (20S proteasome of Thermoplasma acidophilum, T20S)
Briefly: GFPssrA unfolding, loss of fluorescence […], ATPγS:ATP ratio series. In kind it is biochemical. The settings on record: competing with ATP, 2 mM total nucleotide, 0.2 μM GFPssrA, 400 nM T20S, 20 mM MgCl2, pH 7.5.

Data set [2] has as its target PAN (Proteasome Activating Nucleotidase) (UniProt Q58576).
Substrate in the data set “purified protein”: Nc1ncnc2c1ncn2[C@@H]1O[C@H](COP(=O)(O)OP(=O)(O)OP(=O)(O)O)[C@@H](O)[C@H]1O
Briefly: purified protein. The class given is biochemical, Methanocaldococcus jannaschii. As to conditions: 0.2 μM GFPssrA, 400 nM T20S, 20 mM MgCl2, pH 7.5, ATP hydrolysis read-out, printed unit doubtful: ATP was varied 0–3 mM, so mM likely meant.

T1 sequence (P25156 whole entry partner, one chain of several): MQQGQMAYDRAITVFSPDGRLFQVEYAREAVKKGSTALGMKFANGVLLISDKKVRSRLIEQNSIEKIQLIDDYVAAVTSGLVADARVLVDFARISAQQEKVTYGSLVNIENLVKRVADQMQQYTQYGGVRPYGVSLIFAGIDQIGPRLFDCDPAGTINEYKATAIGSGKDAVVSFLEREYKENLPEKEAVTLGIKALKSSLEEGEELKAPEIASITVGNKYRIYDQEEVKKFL
T1 sequence (P28061 9-211 partner, one chain of several): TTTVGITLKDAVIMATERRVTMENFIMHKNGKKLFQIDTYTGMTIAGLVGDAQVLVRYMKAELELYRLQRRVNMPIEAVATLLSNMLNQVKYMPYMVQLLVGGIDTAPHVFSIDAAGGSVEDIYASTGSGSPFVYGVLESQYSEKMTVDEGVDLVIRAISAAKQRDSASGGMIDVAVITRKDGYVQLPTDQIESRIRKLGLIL

In the case of `Nc1ncnc2c1ncn2[C@@H]1O[C@H](COP(=O)(O)OP(=O)(O)OP(O)(O)=S)[C@@H](O)[C@H]1O` [ATPγS], the “GFPssrA unfolding, loss of fluorescence 485/510, ATPγS:ATP ratio series” value in data set [1] is given as “as the ATPγS:ATP ratio increased, GFPssrA unfolding rate decreased”.

In the case of “GFPssrA (GFP with an unstructured ssrA tag)”, in data set [2], the Km for GFPssrA in ATP-dependent unfolding by PAN (steady-state loss of GFP fluorescence, ex/em 485/510; GFPssrA 0 to 10 μM, 50 nM PAN, 400 nM T20S, 2 mM ATP) came to 0.187 µM.

B1: PAN (Proteasome Activating Nucleotidase), with T20S (Methanocaldococcus jannaschii DSM 2661) (protein)
chain: MVFEEFISTELKKEKKAFTEEFKEEKEINDNSNLKNDLLKEELQEKARIAELESRILKLELEKKELERENLQLMKENEILRRELDRMRVPPLIVGTVVDKVGERKVVVKSSTGPSFLVNVSHFVNPDDLAPGKRVCLNQQTLTVVDVLPENKDYRAKAMEVDERPNVRYEDIGGLEKQMQEIREVVELPLKHPELFEKVGIEPPKGILLYGPPGTGKTLLAKAVATETNATFIRVVGSELVKKFIGEGASLVKDIFKLAKEKAPSIIFIDEIDAIAAKRTDALTGGDREVQRTLMQLLAEMDGFDARGDVKIIGATNRPDILDPAILRPGRFDRIIEVPAPDEKGRLEILKIHTRKMNLAEDVNLEEIAKMTEGCVGAELKAICTEAGMNAIRELRDYVTMDDFRKAVEKIMEKKKVKVKEPAHLDVLYR
notes: homohexamer; with Proteasome subunit alpha (20S proteasome of Thermoplasma acidophilum, T20S); Proteasome subunit beta (20S proteasome of Thermoplasma acidophilum, T20S)
As to B1, the Km in “purified protein” came out at 0.000397 ± 1.7e-05 mM.

Broadly, the Km is the concentration of substrate that gives half-maximal velocity.
